Data published in paper PMC9723616.

T1: FemX (UniProt Q9EY50 1-336)
T1 sequence: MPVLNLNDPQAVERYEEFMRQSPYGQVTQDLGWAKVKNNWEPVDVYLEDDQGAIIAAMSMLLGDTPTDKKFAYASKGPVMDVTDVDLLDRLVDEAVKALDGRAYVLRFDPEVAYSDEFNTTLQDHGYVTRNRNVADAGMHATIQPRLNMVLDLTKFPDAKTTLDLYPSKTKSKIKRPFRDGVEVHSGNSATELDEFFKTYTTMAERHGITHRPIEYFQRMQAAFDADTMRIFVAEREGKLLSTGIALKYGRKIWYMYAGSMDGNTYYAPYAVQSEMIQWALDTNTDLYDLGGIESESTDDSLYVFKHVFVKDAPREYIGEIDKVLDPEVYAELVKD


Biological target: T1, FemX
Test: competition

Row | Binder | Ki [nM]
1 | GGGGCCUUAGCUCAGGCUCCACCA (XNA, 2'F-ANA in stem (14 F); dC at penultimate position (pdCpA); 2'-azido-2'-deoxy A76 joined by triazole to UDP-MurNAc-pentapeptide) [compound 20 (2'F-ANA stem peptidyl-helix, 24 nt)] | 221 ± 10
2 | GGGGCCUUAGCUCAGGCUCCACCA (XNA, 2'F-RNA in stem (14 F); dC at penultimate position (pdCpA); 2'-azido-2'-deoxy A76 joined by triazole to UDP-MurNAc-pentapeptide) [compound 17 (2'F-RNA stem peptidyl-helix, 24 nt)] | 0.397 ± 0.107
